Laboratory results: patent US20250368729A1 (ATTRALUS, published 2025)
Where a chain is given by its changes, count along the chain named. Names and notes keep the numbering of the source.

How the values were obtained:
[1] = target: T1, Vκ4Len(1-22) monomer peptide (Homo sapiens (Human), UniProt P06312 21-42); assay: pulldown, labelled antibody, peptide on beads
T1 construct: Free peptide as analyte in SPR; also called Vκ4(LEN(1-22) beads)
T1 peptide: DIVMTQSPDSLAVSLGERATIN

hIAPP fibril = target: T2, hIAPP fibril (UniProt P10997 34-70); assay: pulldown, labelled antibody
T2 construct: Fibrillar aggregate
T2 chain (looked up): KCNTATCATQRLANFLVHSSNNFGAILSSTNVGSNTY

[2] = target: T3, Aβ(1-40) amyloid-like fibrils (UniProt P05067 672-711); assay: pulldown, labelled antibody
T3 construct: domain: Aβ(1-40); Fibrillar aggregate; The numbers 1-40 count on Aβ, not on the precursor; also called Aβ(1-40) fibrils
T3 sequence (P05067 672-711 limits assumed): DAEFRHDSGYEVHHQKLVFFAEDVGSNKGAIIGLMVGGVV

[3] = target: T4, synthetic amyloid-like fibrils of recombinant amyloidogenic λ6 variable domain protein (rVλ6Wil); assay: pulldown, labelled antibody
T4 construct: domain: λ6 variable domain; Fibrillar aggregate of many copies; also called rVλ6Wil fibrils; rVλ6Wil synthetic fibrils

[4] = target: T4, synthetic amyloid-like fibrils of …; assay: EuLISA, substrate coated on plate
Method: (§1) To perform europium-linked immunosorbent assays (EuLISAs), suspensions of rVλ6Wil fibrils (sonicated) were prepared at 0.83 μM in phosphate buffered saline (PBS). The fibrils were coated onto the wells of a 96-well microplate by adding 50 μL to each well. The plates dried at 37° C. overnight. The wells of the microplate were blocked by addition of Superblock (Thermofisher) (SB) using 200 µL/well, and left at 37° C. for 1 hour. The primary (test) antibody (i.e., the humanized antibody) were added, prepared in SB+0.05% tween 20 (SBT) in a 1:2 dilution series starting at 1 μM using 100 µL/well. Plates were then incubated for 1 hour at 37° C. After a wash step (plates were washed three times using PBS+0.05% tween 20), secondary antibody was added as a 1:3000 dilution of biotinylated goat anti-human IgG (Sigma) in SBT at 100 µL/well. The plates were incubated for 1 hour at 37° C. After another wash step, 100 µL/well of a 1:1000 dilution of europium/streptavidin (Perkin Elmer) in SBT was added. The plates were incubated for 1 hour at 37° C. After a final wash step, 100 μL/well of europium enhancement solution (Perkin Elmer) was added. Time-resolved fluorescence emission was detected using a microplate reader (Wallac).
(§2) Table 8, below, provides the results of the ELISAs measuring the ability of mIgp5, hIgG1, c11-1F4, m11-1F4, VH6/VL3-p5, VH9/VL4-p5, and VH9/VL4-p5R to bind rVλ6Wil fibrils, Per125 wtATTR extract, KEN hATTR extract, SHI ALλ liver extract, and TAL ALκliver extract. For each combination of antibody and substrate, the Log-transformed EC₅₀, EC₅₀, and maximal level of binding in the assay is shown. Conditions labeled “na” were not tested.

[5] = target: T4, synthetic amyloid-like fibrils of …; assay: EuLISA, fibrils coated on plate (FIG. 13B)
[6] = target: T5, TAL ALκ liver amyloid extract; assay: EuLISA, substrate coated on plate
T5 construct: Tissue amyloid extract; also called ALκTAL extract
Method: as §1, §2

[7] = target: T6, Per125 wtATTR amyloid extract (human, UniProt P02766 21-147); assay: EuLISA, substrate coated on plate
Method: as §1, §2

[8] = target: T7, SHI ALλ liver amyloid extract; assay: EuLISA, substrate coated on plate
T7 construct: Tissue amyloid extract; also called SHI AL liver extract; ALλ SHI extract
Method: as §1, §2

[9] = target: T8, Per125 wtATTR amyloid extract (human, UniProt P02766 21-147); assay: pulldown, labelled antibody
[10] = target: T8, Per125 wtATTR amyloid extract; assay: EuLISA, substrate coated on plate; remark: listed apart in the source
Method: as §1, §2

[11] = target: T8, Per125 wtATTR amyloid extract; assay: EuLISA, extract coated on plate
[12] = target: T1, Vκ4Len(1-22) monomer peptide; assay: SPR Biacore 8K, antibody immobilised, peptide as analyte
Method: The affinity of humanized anti-amyloid antibodies binding to Vκ4Len(1-22) (“Len(1-22) monomer”) monomer peptide—the natural ligand for the m11-1F4 antibody—was measured using a Biacore 8K surface plasmon resonance (SPR) system. Parental antibody m11-1F4 binds to an epitope present at the N-terminal of denatured kappa 4 light chain proteins. The Len (1-22) monomer is a peptide comprising this epitope, as described in International Application No. PCT/US2017/015905. Binding affinities of anti-amyloid antibodies incorporating the humanized heavy chain region VH9 and the humanized light chain VL4 were tested, including versions of VH9 and VL4 with additional mutations (Table 5).
All SPR data were processed using the Biacore 8K Evaluation software version 1.1. Flow cell 1 and blank injections of buffer in each cycle were used as double reference for Response Units subtraction.
Table 7 provides the results of SPR assays measuring the binding of the humanized anti-amyloid antibodies to a Len(1-22) Monomer peptide. Specifically, the humanized VH9 and VL4 sequences were tested with or without additional amino acid substitutions, as indicated in the “Ligand” column of Table 7.

TYL ALλ amyloid extract = target: T9, TYL ALλ amyloid extract; assay: pulldown, labelled antibody
T9 construct: Tissue amyloid extract; also called ALλ TYL extract

[13] = target: T5, TAL ALκ liver amyloid extract; assay: pulldown, labelled antibody
HIG ALκ1 amyloid extract = target: T10, HIG ALκ1 amyloid extract; assay: pulldown, labelled antibody
T10 construct: Tissue amyloid extract; also called ALκ HIG extract

[14] = target: T6, Per125 wtATTR amyloid extract; assay: pulldown, labelled antibody; remark: listed apart in the source
[15] = target: T7, SHI ALλ liver amyloid extract; assay: pulldown, labelled antibody
[16] = target: Per253 wild type (wt) ATTR amyloid extract (human, UniProt P02766 21-147); assay: pulldown, labelled antibody
[17] = target: T4, synthetic amyloid-like fibrils of …; assay: pulldown, 125I-labelled antibody

B1: VH6/VL3-p5 (humanized VH6/VL3 with peptide p5 fused to the N-terminal of the light chain) (antibody, V domains shown)
VH: QVQLQESGPGLVKPSETLSLTCTVSGFSLSSYGVSWVRQPPGKGLEWLGVIWGDGSTNYHPNLMSRLSISKDTSKNQFSLKLSSVTAADTATYYCVTLDYWGQGTSVTVSS
VL: DVVMTQSPLSLPVTLGQPASISCRSSQSLVHRNGNTYLHWYLQRPGQSPRLLIYKVSNRFSGVPDRFSGSGSGTDFTLKISRVEAEDVGLYFCFQTTYVPNTFGGGTKLEIK
Question: How did the percent bound [1] turn out when B1 was run?
Answer: 54.9%

Question: What about the percent bound (hIAPP fibril) of the same binder?
Answer: 4.82%

Question: And the percent bound [2]?
Answer: 20.6%

Question: And the percent bound [3]?
Answer: 22.5%

Question: And the EC50 [4]?
Answer: 3.49 nM

Question: And the LogEC50 [4]?
Answer: 8.46 -log(M)

Question: What about the “Max (maximal level of binding)” value [4] of the same binder?
Answer: 65.3

Question: And the EC50 [5]?
Answer: 3 nM

Question: And the “fold enhancement of binding over VH6/VL3 (based on EC50)” value [5]?
Answer: ~30 fold

B2: chimeric (c) 11-1F4 (antibody, V domains shown)
VH: QVQLKESGPGLVAPSQSLSITCTVSGFSLSSYGVSWVRQPPGKGLEWLGVIWGDGSTNYHPNLMSRLSISKDISKSQVLFKLNSLQTDDTATYYCVTLDYWGQGTSVTVSS
VL: B1 VL with S7T, T14S, Q17D, P18Q, R44K, R50K, V88L
notes: also called ch11-1F4; ci1-1F4
Question: With B2 as the binder, how does the “Max (maximal level of binding)” value [6] read?
Answer: ~17800

Question: What about the “Max (maximal level of binding)” value [7] of the same binder?
Answer: 71.1

Question: And the “Max (maximal level of binding)” value [8]?
Answer: 51.3

Question: What about the “Max (maximal level of binding)” value [4] of the same binder?
Answer: 63.9

B3: VH9/VL4-p5R (humanized VH9/VL4 with peptide p5R fused to the N-terminal of the light chain) (antibody, V domains shown)
VH: B1 VH with V37I, L67V, S68T, K71V, N76S, F78V, S79L, L80F, T92V, V96A
VL: B1 VL with Y41F, L42Q, L90V
Question: For B3, which percent bound [1] is on record?
Answer: 50.2%

Question: What about the percent bound [9] of the same binder?
Answer: 1.12%

Question: What about the percent bound [3] of the same binder?
Answer: 22.6%

Question: And the EC50 [10]?
Answer: 14 nM

Question: And the LogEC50 [10]?
Answer: 7.86 -log(M)

Question: And the “Max (maximal level of binding)” value [10]?
Answer: 55.7

Question: And the EC50 [4]?
Answer: 3.91 nM

Question: What about the LogEC50 [4] of the same binder?
Answer: 8.41 -log(M)

Question: And the “Max (maximal level of binding)” value [4]?
Answer: 82.7

B4: murine antibody m11-1F4 (antibody, V domains shown)
VH: B2 VH
VL: B1 VL with S7T, T14S, Q17D, P18Q, R44K, R50K, V88L
notes: Murine IgG1 kappa; also called murine 11-1F4; m1-1F4
Question: Which “Max (maximal level of binding)” value [6] does the source give for B4 here?
Answer: ~35100

Question: What about the “Max (maximal level of binding)” value [7] of the same binder?
Answer: 209

Question: What about the “Max (maximal level of binding)” value [8] of the same binder?
Answer: ~1510

Question: And the “Max (maximal level of binding)” value [4]?
Answer: 184

B5: VH6/VL3-p5R (humanized VH6/VL3 with peptide p5R fused to the N-terminal of the light chain) (antibody, V domains shown)
VH: B1 VH
VL: B1 VL
Question: What does the source list for B5?
Answer: EC50 [5]: 3 nM; fold enhancement of binding over VH6/VL3 (based on EC50) [5]: ~30 fold; EC50 [11]: 85 nM

B6: VH9/VL4-p5 (humanized VH9/VL4 with peptide p5 fused to the N-terminal of the light chain) (antibody, V domains shown)
VH: B1 VH with V37I, L67V, S68T, K71V, N76S, F78V, S79L, L80F, T92V, V96A
VL: B1 VL with Y41F, L42Q, L90V
Question: Which results are given for B6?
Answer: percent bound [1]: 54.4%; percent bound [9]: 1.33%; percent bound [3]: 24.7%; EC50 [10]: 24.5 nM; LogEC50 [10]: 7.61 -log(M); Max (maximal level of binding) [10]: 58.1; EC50 [4]: 4.05 nM; LogEC50 [4]: 8.39 -log(M); Max (maximal level of binding) [4]: 71

B7: VH9 + VL4-G34V (antibody, V domains shown)
VH: B1 VH with V37I, L67V, S68T, K71V, N76S, F78V, S79L, L80F, T92V, V96A
VL: B1 VL with G34V, Y41F, L42Q, L90V
Question: Which Kd [12] does the source give for B7 here?
Answer: 35 nM

Question: What about the koff [12] of the same binder?
Answer: 0.00146 s⁻¹

Question: And the kon [12]?
Answer: 41800 M⁻¹ s⁻¹

B8: murine Ig-peptide fusion Igp5 (murine 11-1F4 with peptide p5 fused to the N-terminus of the light chain) (antibody)
heavy: B2 VH
light: AQAGQAGQAQGGGYSKAQKAQAKQAKQAQKAQKAQAKQAKQVTPTVDVVMTQTPLSLPVSLGDQASISCRSSQSLVHRNGNTYLHWYLQKPGQSPKLLIYKVSNRFSGVPDRFSGSGSGTDFTLKISRVEAEDLGLYFCFQTTYVPNTFGGGTKLEIK
notes: Antibody-peptide fusion; unlabelled in the EuLISA; also called mIgp5; mIgG-p5; not shown: murine 11-1F4 (IgG1) CH1 followed by murine IgG2a CH2-CH3 (pFUSE-mIgG2A-Fc); murine 11-1F4 kappa constant region (CL)
Question: B8 was tested. Which percent bound (TYL ALλ amyloid extract) did it give?
Answer: 21%

Question: And the percent bound [13]?
Answer: 37%

Question: What about the percent bound (HIG ALκ1 amyloid extract) of the same binder?
Answer: 10%

Question: And the percent bound [14]?
Answer: 31%

Question: And the percent bound [15]?
Answer: 34%

Question: What about the percent bound [3] of the same binder?
Answer: 71%

Question: What about the percent bound [16] of the same binder?
Answer: 17%

Question: What about the EC50 [6] of the same binder?
Answer: 3.37 nM

Question: What about the LogEC50 [6] of the same binder?
Answer: 8.47 -log(M)

Question: What about the “Max (maximal level of binding)” value [6] of the same binder?
Answer: 24.6

Question: And the EC50 [7]?
Answer: 6.24 nM

Question: And the LogEC50 [7]?
Answer: 8.21 -log(M)

Question: And the “Max (maximal level of binding)” value [7]?
Answer: 31.7

Question: And the EC50 [8]?
Answer: 2.94 nM

Question: What about the LogEC50 [8] of the same binder?
Answer: 8.53 -log(M)

Question: And the “Max (maximal level of binding)” value [8]?
Answer: 24

Question: What about the EC50 [4] of the same binder?
Answer: 2.88 nM

Question: And the LogEC50 [4]?
Answer: 8.54 -log(M)

Question: What about the “Max (maximal level of binding)” value [4] of the same binder?
Answer: 58.5

Question: What about the “fold higher binding than murine 11-1F4” value [17] of the same binder?
Answer: 21 fold
